Article PMC3776414

Experiments:
[1] = target: calmodulin (CaM) cysteine mutant E11C (UniProt P0DP23); test: FRET or BRET
[2] = target: Alexa Fluor 555-labeled E11C calmodulin mutant (UniProt P0DP23); test: FRET or BRET
[3] = target: Alexa Fluor 594-modified E11C CaM (UniProt P0DP23); test: FRET or BRET
[4] = target: calmodulin (CaM) cysteine mutant E11C (UniProt P0DP23); test: solvatochromic fluorescence
[5] = target: calmodulin (CaM) cysteine mutant M145C (UniProt P0DP23); test: solvatochromic fluorescence
[6] = target: calmodulin (CaM) cysteine mutant M76C (UniProt P0DP23); test: solvatochromic fluorescence

increase in the acceptor fluorescence after Ca2+ addition [1] [fold] | FRET fluorescence increase (Ca2+-bound over apo-state) [2] [fold] | FRET fluorescence increase at 611 nm [3] [fold] | increase of the direct fluorescence emission from 4DMN [3] [fold] | 4DMN fluorescence increase at 505 nm (Ca2+-bound complex over apo-state) [4] [fold] | 4DMN fluorescence increase at 505 nm (Ca2+-bound complex over apo-state) [5] [fold] | 4DMN fluorescence increase at 505 nm (Ca2+-bound complex over apo-state) [6] [fold] | Substance
4.9 |  |  |  |  |  |  | 4DMN/Alexa 555-labeled M13 peptide (4DMN at position 8, Alexa Fluor 555 on an N-terminal cysteine)
 | 23 | 5.5 | 114 | 98 | 43 | 180 | 4DMN-labeled M13 peptide (M13, the calmodulin-binding peptide, with the 4DMN amino acid at position 8)
